Results on 4 molecules are retold here after JP2014141434A (dated 2014).

Holding throughout (test): flow cytometry, transfected HEK293 cells
Assay [1] addresses T1, ラットROBO4 (pCI−raROBO4導入細胞) (rat, UniProt Q80W87 38-949 at identity 0.93)).
T1 construct: also called rat ROBO4; raROBO4
T1 chain: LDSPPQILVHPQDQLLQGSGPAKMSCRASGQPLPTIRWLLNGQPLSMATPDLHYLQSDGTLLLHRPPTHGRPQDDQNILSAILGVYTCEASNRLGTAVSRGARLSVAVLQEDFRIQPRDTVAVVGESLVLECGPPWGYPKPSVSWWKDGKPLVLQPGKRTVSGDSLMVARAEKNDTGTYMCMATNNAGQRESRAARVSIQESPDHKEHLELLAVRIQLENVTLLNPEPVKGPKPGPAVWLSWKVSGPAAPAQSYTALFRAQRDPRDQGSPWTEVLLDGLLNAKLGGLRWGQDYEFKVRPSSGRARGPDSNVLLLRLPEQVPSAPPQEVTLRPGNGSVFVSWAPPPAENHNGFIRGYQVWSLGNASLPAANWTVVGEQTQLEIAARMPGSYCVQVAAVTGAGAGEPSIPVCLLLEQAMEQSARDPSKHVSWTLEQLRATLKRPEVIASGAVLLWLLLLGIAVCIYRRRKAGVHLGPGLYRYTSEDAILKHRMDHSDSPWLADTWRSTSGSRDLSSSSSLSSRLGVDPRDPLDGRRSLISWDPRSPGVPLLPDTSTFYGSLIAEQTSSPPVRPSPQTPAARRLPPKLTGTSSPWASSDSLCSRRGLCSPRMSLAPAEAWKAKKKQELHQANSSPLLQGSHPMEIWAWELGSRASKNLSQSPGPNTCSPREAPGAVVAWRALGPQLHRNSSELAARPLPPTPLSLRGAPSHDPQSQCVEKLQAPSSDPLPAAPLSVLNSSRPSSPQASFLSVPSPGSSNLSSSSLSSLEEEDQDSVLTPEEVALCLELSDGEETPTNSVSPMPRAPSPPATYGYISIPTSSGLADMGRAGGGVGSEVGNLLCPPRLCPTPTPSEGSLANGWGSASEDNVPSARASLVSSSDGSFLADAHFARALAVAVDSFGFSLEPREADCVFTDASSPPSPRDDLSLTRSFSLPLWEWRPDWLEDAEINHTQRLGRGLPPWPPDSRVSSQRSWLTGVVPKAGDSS

Assay [2] has as its target T2, N末端FLAG−tag付加型カニクイザルROBO4 cynoROBO4−1 (cynomolgus monkey, UniProt Q8WZ75 28-1007 (human entry)).
T2 construct: also called pCI−FLAG−cynoROBO4−1
T2 chain: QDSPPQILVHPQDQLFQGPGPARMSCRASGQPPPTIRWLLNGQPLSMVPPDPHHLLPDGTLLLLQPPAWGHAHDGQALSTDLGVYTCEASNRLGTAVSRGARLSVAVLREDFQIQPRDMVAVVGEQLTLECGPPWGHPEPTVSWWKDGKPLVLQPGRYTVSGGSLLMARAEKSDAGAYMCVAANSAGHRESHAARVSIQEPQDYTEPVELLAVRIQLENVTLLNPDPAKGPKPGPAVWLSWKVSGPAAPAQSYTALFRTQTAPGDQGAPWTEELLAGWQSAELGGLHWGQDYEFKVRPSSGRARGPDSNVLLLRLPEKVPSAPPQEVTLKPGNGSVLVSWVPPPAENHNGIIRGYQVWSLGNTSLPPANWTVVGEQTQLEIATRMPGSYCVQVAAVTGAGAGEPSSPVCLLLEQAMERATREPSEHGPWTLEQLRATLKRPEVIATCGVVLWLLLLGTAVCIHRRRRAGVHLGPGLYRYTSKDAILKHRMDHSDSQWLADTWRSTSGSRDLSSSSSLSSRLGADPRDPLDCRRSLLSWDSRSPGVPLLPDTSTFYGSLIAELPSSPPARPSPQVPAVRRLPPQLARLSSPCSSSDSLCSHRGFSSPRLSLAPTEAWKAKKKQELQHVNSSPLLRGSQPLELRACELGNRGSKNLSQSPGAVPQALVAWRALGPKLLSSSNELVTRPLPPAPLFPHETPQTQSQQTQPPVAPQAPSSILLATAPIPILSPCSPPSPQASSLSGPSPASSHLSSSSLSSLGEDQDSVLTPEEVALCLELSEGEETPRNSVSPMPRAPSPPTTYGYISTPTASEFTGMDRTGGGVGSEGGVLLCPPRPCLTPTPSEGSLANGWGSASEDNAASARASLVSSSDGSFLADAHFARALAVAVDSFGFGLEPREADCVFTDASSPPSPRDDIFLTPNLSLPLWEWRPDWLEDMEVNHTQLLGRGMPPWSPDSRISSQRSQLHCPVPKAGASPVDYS

A further assay has as its target T3, N末端FLAG−tag付加型ヒトROBO1 (human, UniProt Q9Y6N7 58-1651).
T3 construct: also called hROBO1; pCI−FLAG−hROBO1
T3 sequence (Q9Y6N7 other isoform, or with tags, fused parts or gaps): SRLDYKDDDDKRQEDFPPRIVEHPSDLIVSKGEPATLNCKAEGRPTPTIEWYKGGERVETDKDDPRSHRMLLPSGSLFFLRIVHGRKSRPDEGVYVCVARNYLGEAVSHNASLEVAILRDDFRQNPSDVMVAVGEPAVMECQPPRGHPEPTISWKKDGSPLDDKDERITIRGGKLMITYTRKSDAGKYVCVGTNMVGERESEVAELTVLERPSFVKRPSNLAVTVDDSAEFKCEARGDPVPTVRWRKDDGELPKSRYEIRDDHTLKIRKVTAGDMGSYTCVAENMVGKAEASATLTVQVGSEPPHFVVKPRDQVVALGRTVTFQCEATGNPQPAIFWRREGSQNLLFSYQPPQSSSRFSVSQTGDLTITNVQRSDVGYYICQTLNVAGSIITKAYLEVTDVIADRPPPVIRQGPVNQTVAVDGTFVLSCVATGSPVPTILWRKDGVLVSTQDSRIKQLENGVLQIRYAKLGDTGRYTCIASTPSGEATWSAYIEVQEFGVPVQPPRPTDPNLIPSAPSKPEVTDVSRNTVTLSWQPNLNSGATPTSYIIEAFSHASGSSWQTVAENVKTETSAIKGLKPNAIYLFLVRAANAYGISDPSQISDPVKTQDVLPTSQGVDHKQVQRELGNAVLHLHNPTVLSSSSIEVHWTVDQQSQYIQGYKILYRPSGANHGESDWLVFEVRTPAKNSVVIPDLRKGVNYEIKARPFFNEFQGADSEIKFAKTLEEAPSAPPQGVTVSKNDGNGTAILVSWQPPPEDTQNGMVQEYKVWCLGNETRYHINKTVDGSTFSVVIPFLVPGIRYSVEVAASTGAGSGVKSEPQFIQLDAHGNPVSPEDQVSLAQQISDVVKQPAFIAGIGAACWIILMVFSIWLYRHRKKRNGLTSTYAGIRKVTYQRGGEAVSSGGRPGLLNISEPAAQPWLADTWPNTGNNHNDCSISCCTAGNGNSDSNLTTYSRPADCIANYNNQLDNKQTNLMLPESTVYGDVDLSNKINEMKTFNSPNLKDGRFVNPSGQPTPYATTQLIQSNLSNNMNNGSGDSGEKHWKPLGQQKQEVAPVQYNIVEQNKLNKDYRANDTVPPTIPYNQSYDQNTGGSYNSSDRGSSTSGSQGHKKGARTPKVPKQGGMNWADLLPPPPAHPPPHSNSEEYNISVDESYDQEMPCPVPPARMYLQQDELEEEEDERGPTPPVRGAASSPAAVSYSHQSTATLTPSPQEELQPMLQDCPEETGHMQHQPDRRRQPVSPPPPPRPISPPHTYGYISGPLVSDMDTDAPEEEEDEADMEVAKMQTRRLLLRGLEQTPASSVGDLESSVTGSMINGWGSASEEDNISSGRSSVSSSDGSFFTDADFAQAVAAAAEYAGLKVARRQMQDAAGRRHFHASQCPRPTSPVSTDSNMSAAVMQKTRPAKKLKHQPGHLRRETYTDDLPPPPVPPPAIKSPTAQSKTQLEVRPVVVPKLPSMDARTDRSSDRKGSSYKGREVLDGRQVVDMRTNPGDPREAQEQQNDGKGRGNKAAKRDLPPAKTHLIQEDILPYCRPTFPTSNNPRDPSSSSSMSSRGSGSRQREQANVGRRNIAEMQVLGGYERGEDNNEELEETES

B1: ヒト化MAb1抗体 H−2143 (antibody, human IgG2, kappa, V domains shown)
VH: EVQLVESGGGLVQPGGSLRLSCAASGFTFSTYAMSWVRQAPGKRLEWVATISQGGTYTYYPDSVKGRFTISRDNAKNTLYLQMNSLRAEDTAVYYCARLIYYDYLDYWGQGTLVTVSS
VL: DIVMTQSPLSLPVTLGEPASISCRSSQSLENENKNLYLNWYLQKPGQSPQLLIYRVSNRFSGVPDRFSGSGSGTDFTLKISRVEAEDVGVYYCLQVTHVPWTFGPGTKVDIKR
notes: Humanised IgG2 / kappa; also called H-2143; hMAb1-H4 / hMAb1-L2
For the molecule B1, the values for the binding result (in assay [1]; in assay [2]; in the assay with N末端FLAG−tag付加型ヒトROBO1) were “no binding (tested: 10 μg/mL (method of 4)-3-2))”, “binds” and “no binding (tested: 10 μg/mL (method of 4)-4-2))”, respectively.

B2: ヒト化MAb1抗体 H−2140 (antibody, human IgG2, kappa, V domains shown)
VH: EVQLVESGGGLVQPGGSLRLSCAASGFTFSTYAMSWVRQAPGKRLEWVATISQGGTYTYYPDSVKGRFTISRDNAKNTLYLQMNSLRAEDTAVYYCARLIYYDYLDYWGQGTLVTVSS
VL: DIVMTQSPLSLPVTLGEPASISCRSSQSLENSNGNTYLNWYLQKPGQSPQLLIYRVSNRFSGVPDRFSGSGSGTDFTLKISRVEAEDVGVYYCLQVTHVPWTFGPGTKVDIKR
notes: Humanised IgG2 / kappa; also called H-2140; hMAb1-H4 / hMAb1-L1
With B2, the binding result in assay [1] is “no binding (tested: 10 μg/mL (method of 4)-3-2))”; in assay [2], “binds”; in the assay with N末端FLAG−tag付加型ヒトROBO1 it was “no binding (tested: 10 μg/mL (method of 4)-4-2))”.

B3: ヒト化MAb1抗体 H−1143 (antibody, human IgG2, kappa, V domains shown)
VH: EVQLVESGGGLVQPGGSLRLSCAASGFTFSTYAMSWVRQAPGKGLEWVATISQGGTYTYYPDSVKGRFTISRDNAKNTLYLQMNSLRAEDTAVYYCARLIYYDYLDYWGQGTLVTVSS
VL: DIVMTQSPLSLPVTLGEPASISCRSSQSLENENKNLYLNWYLQKPGQSPQLLIYRVSNRFSGVPDRFSGSGSGTDFTLKISRVEAEDVGVYYCLQVTHVPWTFGPGTKVDIKR
notes: Humanised IgG2 / kappa; also called H-1143; hMAb1-H2 / hMAb1-L2
As for B3, the binding result in assay [1] was “no binding (tested: 10 μg/mL (method of 4)-3-2))”; in assay [2], “binds”; with N末端FLAG−tag付加型ヒトROBO1, “no binding (tested: 10 μg/mL (method of 4)-4-2))”.

B4: 抗ROBO4マウスモノクローナル抗体 MAb1 (antibody, V domains shown)
VH: EVQLVESGGGLVKPGGSLKLSCAASGFTFSTYAMSWVRQTPEKRLEWVATISNGGTYTYYPDSVKGRFTISRDNAENTLYLQMSSLRSEDTAMYFCARLIYYDYLDYWGHGTTLTVSS
VL: DAVMTQTPLSLPVSLGDQASISCRSSQSLENSNGNTYLNWYFQKPGQSPQLLIYRVSNRFSGVLDRFSGSGSGTDFTLKISRVEAEDFGVYFCLQVTHVPWTFGGGTKLEIKR
notes: Mouse IgG1 (gamma 1) / kappa from a hybridoma; The constant regions are not in the listing; also called MAb1
Turning to B4, the binding result (in assay [1]; with N末端FLAG−tag付加型ヒトROBO1) was “no binding (tested: 10 μg/mL)” in each case.
